Measurements as given in patent EP2033655B1.
Ends that are not written are not given here.

Target: Cell-surface expressed nucleolin (on THP-1 monocytic cells; on HeLa P4 cells) (human), P19338
Experiment: cell-based or functional assay

Cell-surface expressed nucleolin (on THP-1 monocytic cells; on HeLa P4 cells) (human), P19338, sequence (P19338 2-710 limits assumed): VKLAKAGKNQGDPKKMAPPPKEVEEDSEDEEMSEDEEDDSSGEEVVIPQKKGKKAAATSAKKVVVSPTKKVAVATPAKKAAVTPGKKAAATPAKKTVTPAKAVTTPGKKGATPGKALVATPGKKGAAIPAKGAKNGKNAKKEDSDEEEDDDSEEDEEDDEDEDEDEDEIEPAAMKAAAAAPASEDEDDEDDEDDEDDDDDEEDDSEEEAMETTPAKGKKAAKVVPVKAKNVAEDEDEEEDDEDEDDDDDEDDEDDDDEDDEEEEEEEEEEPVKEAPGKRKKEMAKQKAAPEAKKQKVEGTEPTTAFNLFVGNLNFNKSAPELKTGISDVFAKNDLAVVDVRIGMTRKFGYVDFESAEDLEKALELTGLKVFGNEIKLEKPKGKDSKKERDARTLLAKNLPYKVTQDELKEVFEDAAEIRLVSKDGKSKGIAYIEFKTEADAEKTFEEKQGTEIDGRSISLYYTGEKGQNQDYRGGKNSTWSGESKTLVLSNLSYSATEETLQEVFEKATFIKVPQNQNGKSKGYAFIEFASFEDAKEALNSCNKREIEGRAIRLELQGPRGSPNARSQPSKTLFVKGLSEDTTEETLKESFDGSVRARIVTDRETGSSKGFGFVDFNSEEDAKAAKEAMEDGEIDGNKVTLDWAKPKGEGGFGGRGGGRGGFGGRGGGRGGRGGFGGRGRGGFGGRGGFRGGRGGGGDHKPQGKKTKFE

B1: HB-19 pseudopeptide, 5[Lys (CH2N)Pro-Arg]-template-assembled synthetic peptide (peptide)
chain: KKKGPKEK
peptide: Lys-Pro-Arg
modifications: also: Lys (CH2N)Pro reduced bond, five Lys-Pro-Arg units assembled on template
In the case of B1, the level of infection of THP-1 cells, HB-19 together with anti-CR3 Mab is reported as 95%.
